Results as given in the supplement of paper PMC9170038.

Test system: MS2 coat protein
Assay: apparent KD of MS2 coat protein; designed switch direction (-1 OFF switch, 1 ON switch): -1; higher = weaker reporter binding
How it was run: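 Designed RNA switches sharing common flanks were transcribed on Illumina chips by stalled E. coli RNA polymerase. They were titrated with SNAP-549-labelled MS2 coat protein, from 0.7 or 1.5 nM doubling to 3 µM, in Tris-HCl pH 7.5 buffer with KCl, MgCl2, BSA, DTT, tRNA and Tween-20. Titrations ran without input, with 200 uM small-molecule ligand, or with an oligonucleotide input. The apparent KD of each design is the median over its clusters, after curve-fitting of normalised cluster fluorescence.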

[1] = Eterna round: R95, input ligand: FMN 200 uM
[2] = Eterna round: R95, input ligand: microRNA oligo, concentration not stated
[3] = Eterna round: R95, input ligand: none
[4] = input ligand: microRNA oligo, concentration not stated

GACCCAAGUGUUAGGAUAUCCAGUCGUGGGACCAGGGAGAAGGAACAUGAGGAUCACCCAUGUAAAAUAGAAAC [Anti] (puzzle: Brourd's mod of Exclusion 4)
apparent KD of MS2 coat protein [1]: 137 nM | apparent KD of MS2 coat protein [2]: 22.3 nM | apparent KD of MS2 coat protein [3]: 22.3 nM

GACUGCUGAGGAUAUACAUGAGGAUCACCCAUGUGCUUCAGCAUCGAAAGAUGCAUUGGUAGAAGGUAGUAGUC [LRO-Excl3-06] (puzzle: Exclusion 3)
apparent KD of MS2 coat protein [2]: 10.9 nM

GACUGCUGAGGAUAUACAUGAGGAUCACCCAUGUGCUUCAGCUACGAAAGUAGCAUUGGUAGAAGGUAGUAGUC [LRO-Excl3-05] (puzzle: Exclusion 3)
apparent KD of MS2 coat protein [2]: 11.5 nM

GACUGCUGAGGAUAUACAUGAGGAUCACCCAUGUGCUUCAGUAUCGAAAGAUACAUUGGUAGAAGGUAGUAGUC [LRO-Excl3-07] (puzzle: Exclusion 3)
apparent KD of MS2 coat protein [2]: 11.1 nM

GACUGCUGAGGAUAUACAUGAGGAUCACCCAUGUGCUUCAGUAUCGAAAGAUACAUUGGUAGAAGGUGGUAGUC [LRO-Excl3-08] (puzzle: Exclusion 3)
apparent KD of MS2 coat protein [2]: 14.9 nM

GACUUCUCUGAGGAUAUUGCAUCACCCGAUCUAUAAGAAGGCAGAACAUGAGGAUCACCCAUGUGGGUUUCUAG [Bingo-Bango-27] (Eterna round: R97, puzzle: Exclusion 6)
apparent KD of MS2 coat protein (input ligand: FMN 200 uM): 40.6 nM | apparent KD of MS2 coat protein (input ligand: none): 29.7 nM

GAGAAGGUAGGAUAUACGAAGAAAAAGGGUAGAAUAAUAACACAUGAGGAUCACCCAUGUAGAAGGACCAAGAG [Mat - Exclusion 2 - Mod of my Tesla design - D19] (puzzle: Exclusion 2)
apparent KD of MS2 coat protein [1]: 44.3 nM | apparent KD of MS2 coat protein [2]: 16.7 nM | apparent KD of MS2 coat protein [3]: 20.4 nM

GAGAAGGUAGGAUAUACGAAUAAAAAGGGUAGAAUAAGAACACAUGAGGAUCACCCAUGUAGAAGGACCAAGAG [Mat - Exclusion 2 - Mod of my Tesla design - D21] (puzzle: Exclusion 2)
apparent KD of MS2 coat protein [1]: 32.8 nM | apparent KD of MS2 coat protein [2]: 18.4 nM | apparent KD of MS2 coat protein [3]: 18.5 nM

GAGAAGGUAGGAUAUACGAAUAAAUAGGGUAGGAAGAAGACACAUGAGGAUCACCCAUGUAGAAGGACCAAGAG [Mat - Exclusion 2 - Mod of my Tesla design - D36] (puzzle: Exclusion 2)
apparent KD of MS2 coat protein [1]: 29.3 nM | apparent KD of MS2 coat protein [2]: 14.6 nM | apparent KD of MS2 coat protein [3]: 17.8 nM

GAGAAGUGAGGAUAUACGAUAAGGAUGAAAGGAAGGAAUGAGUAGAAGGCACAUGAGGAUCACCCAUGUAGAGU [JR_Exclu4_Sub079] (puzzle: Exclusion 4)
apparent KD of MS2 coat protein [1]: 24.1 nM | apparent KD of MS2 coat protein [2]: 25.1 nM | apparent KD of MS2 coat protein [3]: 26.3 nM

GAGAAUUUAUAGGAUAUCGUAUGGAUAAUUUAACGAGAAGGAUGAACAUGAGGAUCACCCAUGUGGUAUCAUGG [JL-ex6-3.14] (puzzle: Exclusion 6)
apparent KD of MS2 coat protein [1]: 270 nM | apparent KD of MS2 coat protein [2]: 280 nM | apparent KD of MS2 coat protein [3]: 247 nM

GAGACGAAAGGAUAUACAUGAGGAUCACCCAUGUAUGAAACAUGAGAAGACACCGCUGGUAGAAGGUUUGGAAA [Eternabot (Original) Solution 46] (Eterna round: R97, puzzle: Exclusion 3)
apparent KD of MS2 coat protein (input ligand: FMN 200 uM): 26.8 nM | apparent KD of MS2 coat protein (input ligand: none): 23.2 nM

GAGAGAAUCUAGGAUAUAUCAAGAGAAGGAGAGAUAGAAGGAGGGACAUGAGGAUCACCCAUGUCUUCGUGUAG [Default title] (Eterna round: R97, puzzle: Exclusion 6)
apparent KD of MS2 coat protein (input ligand: FMN 200 uM): 15.6 nM | apparent KD of MS2 coat protein (input ligand: none): 16 nM

GAGAGCUGAGGAUAUACAUGAGGAUCACCCAUGUACCACCUUGCCGGCACAGAUCCUUGUAGAAGGCGGCUCUA [Eternabot (L2) Solution 57] (Eterna round: R97, puzzle: Exclusion 3)
apparent KD of MS2 coat protein (input ligand: FMN 200 uM): 51.3 nM | apparent KD of MS2 coat protein (input ligand: none): 161 nM

GAGAUGUGAGGAUAUCUGGACCGUGGAAGAGCCACGGUCCGAGAGAAGGCACAUGAGGAUCACCCAUGUGAUGA [Inerusce] (puzzle: Exclusion 4)
apparent KD of MS2 coat protein [2]: 42.8 nM

GAGCCAUCGUGAGAUGGCUAAAUUACAUGAGGAUCACCCAUGUAGGAUAUCGAUUGCUUUGCAGUCGAGAAGGACAUGUUUAAU [JL ENG3 3.99] (Eterna round: R96, puzzle: Exclusion NG 3)
apparent KD of MS2 coat protein (input ligand: FMN 200 uM): 67.5 nM | apparent KD of MS2 coat protein [4]: 27.8 nM | apparent KD of MS2 coat protein (input ligand: none): 32.9 nM

GAGCCAUCGUGAGAUGGCUAACAUACAUGAGGAUCACCCAUGUAGGAUAUCGAUUGCUUUGCAGUCGAGAAGGACAUGUUUAAU [JL ENG3 3.96] (Eterna round: R96, puzzle: Exclusion NG 3)
apparent KD of MS2 coat protein [4]: 19.1 nM

GAGCUGUGAGGAUAUACAUGAGGAUCACCCAUGUUAAGGAAGUGGUGAAUAAUUUAGUGUAGAAGGCACUUAUU [JR_Ex3_Sub023] (Eterna round: R97, puzzle: Exclusion 3)
apparent KD of MS2 coat protein (input ligand: FMN 200 uM): 530 nM | apparent KD of MS2 coat protein (input ligand: none): 116 nM

GAGGACUGAGGAUAUGCGUUGGUACCUCGUAGUAAGCAAAGACAUGAGGAUCACCCAUGUAGAAGGCGGAAAAG [Xegeinenxe] (puzzle: Exclusion 2)
apparent KD of MS2 coat protein [1]: 150 nM | apparent KD of MS2 coat protein [2]: 58.6 nM | apparent KD of MS2 coat protein [3]: 52.6 nM

GAGGAGCAAGGAUAUACGAGGAUAUGGUAGGUUGGAGAGUGACAUGAGGAUCACCCAUGUAGAAGGUGCGAGGG [JR_Exclu2_Sub098] (puzzle: Exclusion 2)
apparent KD of MS2 coat protein [2]: 55.5 nM

GAGUAGGGAGGAUAUACGUGCUCAAUCCCGCGAAGCGGGAAACAUGAGGAUCACCCAUGUAGAAGGCCCAUAAA [Inceveus] (puzzle: Exclusion 2)
apparent KD of MS2 coat protein [1]: 88.4 nM | apparent KD of MS2 coat protein [2]: 171 nM | apparent KD of MS2 coat protein [3]: 185 nM

GAGUGACAUGAGGAUCACCCAUGUGAGGAUAUCGGACGGACCAAGUUAACAUCCGCCGCGAGAAGGCACAUCGG [Exclusion 1 V23] (puzzle: Exclusion 1)
apparent KD of MS2 coat protein [2]: 104 nM

GAGUGACAUGAGGAUCACCCAUGUGAGGAUAUCGGACGGACCUAGUUAACUUCCGCCGCGAGAAGGCACAUCGG [Exclusion 1 V23] (Eterna round: R96, puzzle: Exclusion 1)
apparent KD of MS2 coat protein (input ligand: FMN 200 uM): 75.2 nM | apparent KD of MS2 coat protein [4]: 45.6 nM | apparent KD of MS2 coat protein (input ligand: none): 84 nM

GAGUGACAUGAGGAUCACCCAUGUGAGGAUAUCGGACGGACCUAGUUAACUUCCGCCGCGAGAAGGCACAUCGG [Exclusion 1 V23] (puzzle: Exclusion 1)
apparent KD of MS2 coat protein [2]: 70.2 nM

GAGUGACAUGAGGAUCACCCAUGUGAGGAUAUCGGACGGACCUAGUUAGCUUCCGCCGCGAGAAGGCACAUCGG [Exclusion 1 V24] (puzzle: Exclusion 1)
apparent KD of MS2 coat protein [2]: 63.1 nM

GAGUUAACAUGAGGAAUAUACAUGAGGAUCACCCAUGUUAACAAAUUUUUUGCUCGUCUUAUAACAACAAUUAACUC [Alarm 4 - Jieux - Sensor, turn-off variant 1] (Eterna round: R97, puzzle: Sensor, turn-off variant 1)
apparent KD of MS2 coat protein (input ligand: FMN 200 uM): 434 nM | apparent KD of MS2 coat protein (input ligand: none): 206 nM

GAUAAACAUGAGGAUCACCCAUGUGAGGAUAUGCGUACGUUGUCCGUAGGCGACGUGCGCAGAAGGCGCAAGGU [Mat - Mod of JL D99] (puzzle: Exclusion 1)
apparent KD of MS2 coat protein [2]: 73 nM

GAUACACAUGAGGAUCACCCAUGUGAGGAUAUGCGUACGUUGUCCGUAGGCGACGUGCGCAGAAGGCGCUUGGU [Mat - Mod of JL D98] (puzzle: Exclusion 1)
apparent KD of MS2 coat protein [2]: 57.3 nM
